The record followed here is patent US7972815B2, “Method of producing sugar chain using human G4 polypeptide” (Kyowa Hakko Kirin Co., Ltd., priority 1999, dated 2011).

Substitutions are numbered along the chain they refer to.

The nature of experiment [1]: β1,3-N-acetylglucosaminyl transferase activity in cell extract of stable transformants (Example 8). In kind it is biochemical, human. The following applies: cell extract of Namalwa KJM-1 transformed by expression plasmid; 50 μM pyridylaminated LNnT; 37° C., 16 hours; control plasmid cells 1.8%. As to the method: The β1,3-N-acetylglucosaminyl transferase activity was examined by using a cell extract of stable transformants which were transformed by a plasmid capable of expressing G3, G4, G4-2 or G7 polypeptide obtained in Example 7.
The transformed cells (about 2×10^7) were transferred into a microtube (1.5 ml: manufactured by Eppendorf) and centrifuged (550×g for 7 minutes) to collect the cells. The cells were washed with 0.9 ml of PBS, the washed cells were suspended in a solution […] composed of 20 mmol/l HEPES (pH 7.2) and 1% Triton X-100 and then the cells were disrupted by a sonicator (Bioruptor; manufactured by Cosmo Bio). After standing at 4° C. for 1 hour, a supernatant was obtained by centrifugation (550×g for 7 minutes). The supernatant was used as an enzyme sample. The β1,3-N-acetylglucosaminyl transferase activity was measured by using this enzyme sample.
Preparation of a pyridylaminated sugar chain substrates and activity measurement were carried out in accordance with known methods [Japanese Published Unexamined Patent Application No. 181757/94, Japanese Published Unexamined Patent Application No. 823021/94, J. Biol. Chem., 269, 14730 (1994), J. Biol. Chem., 267, 2994 (1992)].
(§1) Specifically, the reaction was carried out at 37° C. for 16 hours in 30 μl of an assay solution [200 mmol/l of MOPS (pH 7.5), 50 mmol/l of UDP-GlcNAc (SIGMA), 20 mmol/l of MnCl2, 0.3% Triton X-100, 50 μM of a pyridylaminated sugar chain substrate and 10 μl of the above cell lysate], and then products were detected by a high performance liquid chromatography (HPLC).
As a substrate, lacto-N-neotetraose (Galβ1-4GlcNAcβ1-3Galβ1-4Glc; hereinafter referred to as “LNnT”) fluorescence-labeled with aminopyridine was used. […]
(§2) Products were detected by using a fluorescence spectrum photometer FP-920 (JASCO Corporation) (excitation wavelength 320 nm, radiation wavelength 400 nm). […]
(§3) The amount of products was measured by using pyridylaminated lactose as a standard and comparing their fluorescence intensity.

A short description of experiment [2]: β1,3-N-acetylglucosaminyl transferase activity of secreted FLAG peptide-fused polypeptides (method of Example 8). In kind it is biochemical, human. The method, then: as §1
As a substrate, lacto-N-neotetraose (Galβ1-4GlcNAcβ1-3Galβ1-4Glc; hereinafter referred to as “LNnT”) fluorescence-labeled with aminopyridine was used.
After carrying out the reaction by using the assay solution with or without UDP-GlcNAc (sugar donor), HPLC was carried out and peaks appeared only in the assay solution containing UDP-GlcNAc were defined as products.
The assay solution after completion of the reaction was treated at 100° C. for 5 minutes and then centrifuged at 10,000×g for 5 minutes, and a portion (5 μl) of the thus obtained supernatant was applied to HPLC.
The HPLC was carried out by using TSK-gel ODS-80Ts column (4.6×300 mm; Tosoh); 0.02 M ammonium acetate buffer (pH 4.0) was used as an eluate at elution temperature 50° C. and flow rate 0.5 ml/min.
as §2, §3
A β1,3-N-acetylglucosaminyl transferase activity of FLAG peptide-fused G4 polypeptide expressed as a secreted form in Namalwa KJM-1 cell was measured by using 15 μl of the eluate prepared in the above (4). […] As a result, a β1,3-N-acetylglucosaminyl transferase activity was detected when the eluate derived from the culture supernatant of pAMoF2-G4-introduced Namalwa KJM-1 cell was used. […] On the other hand, the activity was not detected when the eluate derived from the culture supernatant of Namalwa KJM-1 cell transformed by the vector pAMoF2 was used.
A β1,3-N-acetylglucosaminyl transferase activity of FLAG peptide-fused G4 polypeptide produced as a secreted form in the insect cell was measured using 15 μl of the eluate prepared in the above (3). […] As a result, a β1,3-N-acetylglucosaminyl transferase activity was detected when the eluate derived from the culture supernatant of the insect cell transformed by pVL1393-F2G4 was used.
A β1,3-N-acetylglucosaminyl transferase activity was also detected when the resin before elution was used. […]
A β1,3-N-acetylglucosaminyl transferase activity of FLAG peptide-fused G3 polypeptide was measured by using 15 μl of the purified sample prepared in the above (3). […] As a result, a β1,3-N-acetylglucosaminyl transferase activity was detected. […]

Where [3] appears, read: 15 μl eluate/purified sample from insect cell (Sf21) culture supernatant.

B1: G3: polypeptide containing 397 amino acids, SEQ ID NO:1; novel β1,3-N-acetylglucosaminyl transferase (protein, listed as Homo sapiens)
chain: MSVGRRRIKLLGILMMANVFIYFIMEVSKSSSQEKNGKGEVIIPKEKFWKISTPPEAYWNREQEKLNRQYNPILSMLTNQTGEAGRLSNISHLNYCEPDLRVTSVVTGFNNLPDRFKDFLLYLRCRNYSLLIDQPDKCAKKPFLLLAIKSLTPHFARRQAIRESWGQESNAGNQTVVRVFLLGQTPPEDNHPDLSDMLKFESEKHQDILMWNYRDTFFNLSLKEVLFLRWVSTSCPDTEFVFKGDDDVFVNTHHILNYLNSLSKTKAKDLFIGDVIHNAGPHRDKKLKYYIPEVVYSGLYPPYAGGGGFLYSGHLALRLYHITDQVHLYPIDDVYTGMCLQKLGLVPEKHKGFRTFDIEEKNKNNICSYVDLMLVHSRKPQEMIDIWSQLQSAHLKC
Regarding B1, the “ratio of a substrate (LNnT) converted into a product (GlcNAcβ1-3Galβ1-4GlcNAcβ1-3Galβ1-4Glc)” value (“ratio of a substrate” for short) in experiment [1] was 2.7%.

B2: G4: polypeptide composed of 372 amino acids, SEQ ID NO:2; novel β1,3-N-acetylglucosaminyl transferase (protein, listed as Homo sapiens)
chain: MKYLRHRRPNATLILAIGAFTLLLFSLLVSPPTCKVQEQPPAIPEALAWPTPPTRPAPAPCHANTSMVTHPDFATQPQHVQNFLLYRHCRHFPLLQDVPPSKCAQPVFLLLVIKSSPSNYVRRELLRRTWGRERKVRGLQLRLLFLVGTASNPHEARKVNRLLELEAQTHGDILQWDFHDSFFNLTLKQVLFLQWQETRCANASFVLNGDDDVFAHTDNMVFYLQDHDPGRHLFVGQLIQNVGPIRAFWSKYYVPEVVTQNERYPPYCGGGGFLLSRFTAAALRRAAHVLDIFPIDDVFLGMCLELEGLKPASHSGIRTSGVRAPSQHLSSFDPCFYRDLLLVHRFLPYEMLLMWDALNQPNLTCGNQTQIY
Regarding B2, in experiment [1], the “ratio of a substrate” value came to 2.8%.

B3: G4-2: polypeptide containing 372 amino acids, SEQ ID NO:3; 328th amino acid Arg instead of His (protein, listed as Homo sapiens)
chain: B2 chain with H328R
For B3, the “ratio of a substrate” value in experiment [1] was 2.8%.

B4: FLAG peptide-fused G3 polypeptide: secreted G3, 31st serine to 397th cysteine of SEQ ID NO:1, with immunoglobulin signal sequence and FLAG peptide (protein, listed as Homo sapiens)
chain: SSQEKNGKGEVIIPKEKFWKISTPPEAYWNREQEKLNRQYNPILSMLTNQTGEAGRLSNISHLNYCEPDLRVTSVVTGFNNLPDRFKDFLLYLRCRNYSLLIDQPDKCAKKPFLLLAIKSLTPHFARRQAIRESWGQESNAGNQTVVRVFLLGQTPPEDNHPDLSDMLKFESEKHQDILMWNYRDTFFNLSLKEVLFLRWVSTSCPDTEFVFKGDDDVFVNTHHILNYLNSLSKTKAKDLFIGDVIHNAGPHRDKKLKYYIPEVVYSGLYPPYAGGGGFLYSGHLALRLYHITDQVHLYPIDDVYTGMCLQKLGLVPEKHKGFRTFDIEEKNKNNICSYVDLMLVHSRKPQEMIDIWSQLQSAHLKC
modifications: Ig signal sequence and FLAG peptide
Consider B4, for which, in experiment [2] (setting [3]), the “ratio of the substrate converted into the product” value was determined as 100%.

B5: FLAG peptide-fused G4 polypeptide: secreted G4, 38th glutamic acid to 372nd tyrosine of SEQ ID NO:2, with immunoglobulin signal sequence and FLAG peptide (protein, listed as Homo sapiens)
chain: EQPPAIPEALAWPTPPTRPAPAPCHANTSMVTHPDFATQPQHVQNFLLYRHCRHFPLLQDVPPSKCAQPVFLLLVIKSSPSNYVRRELLRRTWGRERKVRGLQLRLLFLVGTASNPHEARKVNRLLELEAQTHGDILQWDFHDSFFNLTLKQVLFLQWQETRCANASFVLNGDDDVFAHTDNMVFYLQDHDPGRHLFVGQLIQNVGPIRAFWSKYYVPEVVTQNERYPPYCGGGGFLLSRFTAAALRRAAHVLDIFPIDDVFLGMCLELEGLKPASHSGIRTSGVRAPSQHLSSFDPCFYRDLLLVHRFLPYEMLLMWDALNQPNLTCGNQTQIY
modifications: Ig signal sequence and FLAG peptide
As to B5, the “ratio of the substrate converted into the product” value in experiment [2] (15 μl eluate from culture supernatant of pAMoF2-G4-introduced Namalwa KJM-1 cell) was found to be 0.51%; in experiment [2] (setting [3]), 12.1%; in experiment [2] (insect cell product, resin before elution (enzyme adsorbed to Anti-FLAG M1 Affinity Gel)), 21.0%.
